This note sets out measurements from article PMC4914101 (Nucleic Acids Research, 2016).

To fix the notation:
B1: USP11^L4 (USP11 DUSP-UBL with the linker replaced by the USP4 linker) (domain or fragment, human, UniProt P51784 73-288, looked up)
chain: EELPGLDSQWRQIENGESGRERPLRAGESWFLVEKHWYKQWEAYVQGGDQDSSTFPGCINNATLFQDEINWRLKEGLVEGEDYVLLPAAAWHYLVSWYGLEHGQPPIERKVIEHGLFVKHCKVEVYPVELLLVRHNDLGKSHTVQFSHTDSIGLVLRTARERFLVEPQEDTRLWAKNSEGSLDRLYDTHITVLDAALETGQLIIMETRKKDGTWPSAQL
B2: USP11^L15 (USP11 DUSP-UBL with the linker replaced by the USP15 linker) (domain or fragment, human, UniProt P51784 73-288, looked up)
chain: B1 chain with H114Q, L116M
B3: DUSP-UBL domains of human USP15 (residues 1–226) (domain or fragment, UniProt Q9Y4E8 1-226, looked up)
chain: MAEGGAADLDTQRSDIATLLKTSLRKGDTWYLVDSRWFKQWKKYVGFDSWDKYQMGDQNVYPGPIDNSGLLKDGDAQSLKEHLIDELDYILLPTEGWNKLVSWYTLMEGQEPIARKVVEQGMFVKHCKVEVYLTELKLCENGNMNNVVTRRFSKADTIDTIEKEIRKIFSIPDEKETRLWNKYMSNTFEPLNKPDSTIQDAGLYQGQVLVIEQKNEDGTWPRGPST
B4: DUSP-UBL domains of human USP4 (residues 1–230) (domain or fragment, UniProt Q13107 1-230, looked up)
chain: MAEGGGCRERPDAETQKSELGPLMRTTLQRGAQWYLIDSRWFKQWKKYVGFDSWDMYNVGEHNLFPGPIDNSGLFSDPESQTLKEHLIDELDYVLVPTEAWNKLLNWYGCVEGQQPIVRKVVEHGLFVKHCKVEVYLLELKLCENSDPTNVLSCHFSKADTIATIEKEMRKLFNIPAERETRLWNKYMSNTYEQLSKLDNTVQDAGLYQGQVLVIEPQNEDGTWPRQTLQ
B5: SART3 HAT-C with Lα (residues 278–611) (domain or fragment, human, UniProt Q15020 278-611, looked up)
chain: PESVIQNYNKALQQLEKYKPYEEALLQAEAPRLAEYQAYIDFEMKIGDPARIQLIFERALVENCLVPDLWIRYSQYLDRQLKVKDLVLSVHNRAIRNCPWTVALWSRYLLAMERHGVDHQVISVTFEKALNAGFIQATDYVEIWQAYLDYLRRRVDFKQDSSKELEELRAAFTRALEYLKQEVEERFNESGDPSCVIMQNWARIEARLCNNMQKARELWDSIMTRGNAKYANMWLEYYNLERAHGDTQHCRKALHRAVQCTSDYPEHVCEVLLTMERTEGSLEDWDIAVQKTETRLARVNEQRMKAAEKEAALVQQEEEKAEQRKRARAEKKAL

Residue numbers refer to the chain shown, from its start. Where two headings read alike, the source gives them in different places.

In data set [1] the target is T1, SART3 HAT repeat domain (residues 94–611) (human, UniProt Q15020 94-611).
T1 sequence (looked up): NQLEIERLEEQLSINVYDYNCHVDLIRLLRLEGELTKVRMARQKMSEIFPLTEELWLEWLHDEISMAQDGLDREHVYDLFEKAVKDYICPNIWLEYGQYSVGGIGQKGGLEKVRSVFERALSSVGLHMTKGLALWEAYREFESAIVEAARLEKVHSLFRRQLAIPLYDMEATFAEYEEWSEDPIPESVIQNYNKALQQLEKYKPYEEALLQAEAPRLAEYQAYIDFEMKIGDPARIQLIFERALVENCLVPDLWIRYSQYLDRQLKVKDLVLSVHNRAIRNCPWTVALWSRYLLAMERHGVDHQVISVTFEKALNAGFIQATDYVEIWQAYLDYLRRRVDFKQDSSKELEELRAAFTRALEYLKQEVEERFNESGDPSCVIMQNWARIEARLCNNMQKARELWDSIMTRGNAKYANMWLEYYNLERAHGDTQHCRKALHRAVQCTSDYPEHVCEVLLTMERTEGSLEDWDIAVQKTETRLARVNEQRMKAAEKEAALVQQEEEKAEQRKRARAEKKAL
Briefly: ITC. For orientation: ITC needs no label: the signal is the heat of the interaction.

Data set [2] has as its target B5. Briefly: ITC.
Data set [3] has as its target T1, SART3 HAT repeat domain (residues …). Briefly: ITC. The source holds these as a separate data set.
Data set [4] addresses mouse importin-α2 (residues 70–498) (mouse, UniProt P52293 70-498). Briefly: ITC.
The data set “crystal structure” concerns the molecule itself. Briefly: crystal structure.

What is called Kd is the free concentration of one partner at which half of the binding sites on the other are occupied at equilibrium, for simple one-to-one binding. Low values mean tighter binding, high ones weaker binding. A word on the stoichiometry N: it is a count of units in the complex or per binding partner. For B1, in data set [1], the dissociation constant Kd worked out at 20.1 ± 4.36 µM, the dH is -9.1 ± 0.4 kcal/mol and the “stoichiometry N” value came out at 0.89 ± 0.15.

Consider B2, for which, in data set [1], the Kd was found to be 18.7 ± 2.25 µM, the dH is -5.7 ± 0.7 kcal/mol and the “stoichiometry N” value was determined as 1.06 ± 0.09.

With B3, in data set [2], the Kd worked out at 140 ± 60 nM, the dH is -17.7 ± 0.5 kcal/mol and the “stoichiometry N” value is 1.09 ± 0.01. Further, in data set [3], binding was characterised by a dissociation constant (Kd) of 190 ± 40 nM, the dH was -16.1 ± 0.1 kcal/mol and the “stoichiometry N” value came out at 0.99 ± 0.01.

As for B4, in data set [2], the dissociation constant Kd came out at 580 ± 30 nM, the dH was -21.1 ± 0.4 kcal/mol and the “stoichiometry N” value was 1.05 ± 0.01. Further, in data set [3], the affinity, expressed as Kd, was 880 ± 130 nM; the dH was -21.6 ± 0.6 kcal/mol; the “stoichiometry N” value was 1.07 ± 0.02.

As for RKRARAEKKALKKKKKIRGPEKRGADEDDEKEWGDDEEEQPSKRRRVEN (domain or fragment) [SART3 NLS (residues 601–649)], in data set [4], the dissociation constant (Kd) stood at 210 ± 10 nM, the dH is -8.6 ± 0.2 kcal/mol and the “stoichiometry N” value is 1.01 ± 0.01.

In the case of B5, the binding result in “crystal structure” is on record as “binds”.
